Experimental data as given in the supplement of paper PMC10567573.
± gives the standard deviation.

Experiment: protein stability index of a GFP-peptide fusion (GPS, HEK-293T) (PSI 1-6); higher = more stable
[1] = treatment: DMSO, c terminus: a fixed tail appended
[2] = treatment: MLN4924 1 uM, 8 h, c terminus: a fixed tail appended
[3] = treatment: DMSO, c terminus: native
[4] = treatment: MLN4924 1 uM, 8 h, c terminus: native
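Also: 24-mer peptide tiles fused after GFP, lentivirally expressed, FACS-sorted into six equal bins by GFP/DsRed ratio, decoded by Illumina sequencing, PSI is the read-weighted mean bin number.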

Sequence | protein stability index [1] | protein stability index [2] | protein stability index [3] | protein stability index [4]
RKDVCKSTHHGCEHICVNNGNSYI [MATN2] | 3.01 ± 0.32 | 3.07 ± 0.23 | – | –
GGSGPAGLRASTSDGILRGNGTGY [RHOBTB2] | 4.31 ± 0.27 | 4.24 ± 0.39 | – | –
PLLRWVLTLSFLVATVAVGLYAM [HMOX1] | – | – | 2.86 ± 0.15 | 2.57 ± 0.31
AWDNPAYSGPPSPHGTLRVCTISS [PKD2L1] | 2.93 ± 0.31 | 3.05 ± 0.37 | – | –
VISCTIFIVGMVGNATLLRIIYQN [EDNRA] | 3.11 ± 0.14 | 2.29 ± 0.12 | – | –
ELKKMVQQSDLGQYVTFLRSFSDK [ALG2] | 2.21 ± 0.29 | 2.53 ± 0.42 | – | –
TMLSHYRPFYVNKGNGIGSNEAP [TRIM29] | – | – | 3.1 ± 0.24 | 3.14 ± 0.25
KSLDGVTNDRTASQGQWGRAWEVD [DHCR7] | 4.47 ± 0.11 | 4.465 ± 0.035 | – | –
FTFEGFSRLRFLNLGRMIDWVPVE [ZER1] | 2.76 ± 0.63 | 2.81 ± 0.43 | – | –
LPSNPCATTNACEKPIGSCVTNPC [KRT33B] | 4.29 ± 0.081 | 4.41 ± 0.17 | – | –
SVRMRRAEKSVAPSNTGSRTTSVR [NEK8] | 4.62 ± 0.24 | 4.6 ± 0.26 | – | –
KRNNFYIKIRPGEFEQFESTIGFK [EPB41L3] | 2.12 ± 0.52 | 2.46 ± 0.24 | – | –
NICELAARMLFSAVEWARNIPFFP [NR2F2] | 3.61 ± 0.17 | 3.23 ± 0.06 | – | –
SEKKTISFQGCMAQLFMDHLFAGA [OR4A15] | 2.56 ± 0.73 | 2.66 ± 0.79 | – | –
MEGQRQESHATLTLAQAHFNNGEY [TTC32] | 4.42 ± 0.33 | 4.39 ± 0.18 | – | –
NGATDDSKTNLIVNYLPQNMTQDE [ELAVL3] | 5.08 ± 0.29 | 5.21 ± 0.041 | – | –
QLWSNVTPLTFTKVSEGQADIMIS [MMP1] | 2.58 ± 0.24 | 2.66 ± 0.43 | – | –
VEADINGLRRVLDELTLARTDLEM [KRT15] | 3.29 ± 0.27 | 3.33 ± 0.39 | – | –
SSSRGSSHCDSPSPQEDGQIMFDV [BNIP3L] | 4.81 ± 0.26 | 4.91 ± 0.18 | – | –
IERLRSLSPKIMQEAFLVQEVVEL [TBC1D10A] | 2.08 ± 0.36 | 2.09 ± 0.29 | – | –
KRFDESMQVFAKLGTDPTHVMGLY [VPS39] | 2.38 ± 0.25 | 2.69 ± 0.095 | – | –
QFTMGGPAISMASPMSIPTNTMHY [CARM1] | 2.54 ± 0.21 | 2.68 ± 0.18 | – | –
LEEEIRRKQILLRGKLKKTEEELR [ZC2HC1C] | 4.39 ± 0.17 | 4.59 ± 0.39 | – | –

Sequence | protein stability index [1] | protein stability index [2] | protein stability index [3] | protein stability index [4]
VPGGAGPCATVSVFPGARLLTIGD [CARM1] | 2.73 ± 0.43 | 2.53 ± 0.48 | – | –
SGSSYCSFPPSLSSSSSSSPTSGS [LURAP1L] | 4.32 ± 0.13 | 4.42 ± 0.17 | – | –
VDRNTRPGPQDPEESASRQRFGEA [ELOA2] | 4.92 ± 0.25 | 5.14 ± 0.14 | – | –
YSRRLQVQERLTKQIAVAITEALR [GCH1] | 2.34 ± 0.47 | 2.19 ± 0.38 | – | –
WIEHSKLREINFKIVEFNPMVLKG [GLT8D2] | 2.16 ± 0.1 | 2.35 ± 0.14 | – | –
YWRYDEYKRSMDPGYPKMIAHDFP [MMP1] | 2.29 ± 0.22 | 2.18 ± 0.49 | – | –
TPPPGPASAQPLPAPEAAHTTGPT [TFE3] | 5.38 ± 0.27 | 5.38 ± 0.084 | – | –
NWLQVSFTAKHANKVKVLDAPVPD [FSD1] | 3.02 ± 0.15 | 2.91 ± 0.19 | – | –
DVELLQDLGDIVARSESVLLHMPQ [TRIM43] | 3.18 ± 0.2 | 3.25 ± 0.35 | – | –
KPQEIVQVEIFSTNPDLYPVRRID [IQUB] | 2.82 ± 0.38 | 2.79 ± 0.4 | – | –
SRSAILIQHRRTHTDSKYEHAIAE [ZNF396] | 3.63 ± 0.15 | 3.72 ± 0.19 | – | –
VVAVHVVLALFVYVAWNEGSRQWR [VMA21] | 2.84 ± 0.3 | 2.88 ± 0.16 | – | –
GKLKCDICGIICIGPNVLMVHKRS [IKZF1] | 2.91 ± 1.6 | 2.26 ± 0.75 | – | –
SLFVLDQNDNAPEILYPALPTDGS [PCDHGA10] | 3.69 ± 0.33 | 3.84 ± 0.32 | – | –
EIGTSDQIVPEYQEDSDISSFFC [TRIB1] | – | – | 3.38 ± 0.66 | 4.22 ± 0.82
AGIALYSHEDVCVFKCSVSRETEC [CARM1] | 3 ± 0.3 | 2.7 ± 0.4 | – | –
SLSEALDLIESDPDAWCDLSKFDL [MYBL2] | 3.61 ± 0.23 | 4.13 ± 0.56 | – | –
SRGSSVSMSGGRFRCPTCRHEVIM [TRIM63] | 2.43 ± 0.56 | 2.4 ± 0.38 | – | –
EGGGGGSYFSGQGSDTGASLKLAS [JUNB] | 4.67 ± 0.12 | 4.72 ± 0.12 | – | –
KLLNITADPMDWSPSNVQKWLLWT [SPDEF] | 2.34 ± 0.46 | 2.22 ± 0.21 | – | –
AALDACSGNDPFAPSEGSAEAAPE [SNAP91] | 5.43 ± 0.25 | 5.46 ± 0.3 | – | –
ERAPTATFHDSKHNIVHVHFDATR [WDFY2] | 3.34 ± 0.17 | 3.33 ± 0.29 | – | –
SLHKHLTIRLNISDVNDNAPRFNQ [PCDHGC5] | 2.32 ± 0.34 | 2.28 ± 0.27 | – | –

Sequence | protein stability index [1] | protein stability index [2] | protein stability index [3] | protein stability index [4]
FFIESCGAQVPVEGSRRETSITV | – | – | 2.56 ± 0.97 | 2.29 ± 0.36
EHGLHTKYIHRMMQIEFIKQGSMN [TRAF3IP2] | 2.3 ± 0.2 | 2.5 ± 0.26 | – | –
FLESQGIELNPPEKMALDPYTELR [EFHC1] | 3.79 ± 0.41 | 3.89 ± 0.35 | – | –
VRIQNPSLRENDFIEIELDRQELT [ANKRD40] | 3.04 ± 0.41 | 3.26 ± 0.44 | – | –
DKEGYNSIHYAAAYGHRQCLELVS [ANKRD44] | 2.42 ± 0.14 | 2.59 ± 0.21 | – | –
GGMMPPGPGIPPLMPGMPPGMPPP [ZNF207] | 3.89 ± 0.43 | 4.09 ± 0.15 | – | –
VLKRQRKRRVALSPVTENSTSLSF [MYBL2] | 3.59 ± 0.22 | 3.5 ± 0.14 | – | –
TPPASPPPSVLISKNEVGIFTTPN [KMT2E] | 4.03 ± 0.18 | 4.06 ± 0.1 | – | –
RRFQQTQYLALPERAELAASLGLT [DLX1] | 2.95 ± 0.21 | 3.12 ± 0.099 | – | –
PPCAWACPVPAHRRGSWRLPYTDG [CTBP1-DT] | 2.92 ± 0.23 | 2.93 ± 0.17 | – | –
FEYPESSGPARVIAIVSVMVILIS [KCNA1] | 2.82 ± 0.47 | 2.87 ± 0.48 | – | –
QKAVKSCLVCQASFCELHLKPHLE [TRIM29] | 3.86 ± 0.19 | 3.86 ± 0.25 | – | –
PRCDLVDLGEGKICFCCEEFQPAK [FAM189A2] | 3.3 ± 0.44 | 3.67 ± 0.49 | – | –
WEYSSSIQNSDNDLPVVQGSSSFS [TRIM29] | 4.61 ± 0.25 | 4.42 ± 0.36 | – | –
LQAPFLPPKAPPPVIKIPECPSMG [RHOBTB1] | 3.6 ± 0.23 | 3.53 ± 0.57 | – | –
SGTFAPISDRYSPELRQLVLSLLS [NEK8] | 2.12 ± 0.21 | 2.25 ± 0.38 | – | –
DLDACALVRGHRRRLLRRLSPSRG [ZSWIM9] | 4.11 ± 0.46 | 4.12 ± 0.29 | – | –
LTKSQVQDKPYKCTDCGKSFNHNA [ZNF8] | 3.32 ± 0.21 | 3.54 ± 0.27 | – | –
EPLPVERDPAAGAAPFRFVARPVR [ZNF511] | 2.77 ± 0.68 | 3.48 ± 0.87 | – | –
LYHSVKQGPISTKELADFIRERAT [FCHO1] | 2.35 ± 0.14 | 2.4 ± 0.29 | – | –
IGDTSVSYKYTSRYVLKAGQTVTI [LMNB1] | 2.49 ± 0.73 | 2.29 ± 0.5 | – | –
YCKNESGSRSNGMWAHSMTVQDYQ [ATE1] | 2.35 ± 0.45 | 2.7 ± 0.37 | – | –
CPATWGPSVEQAADSLDFDETFLA [FOXJ1] | 4.56 ± 0.15 | 4.61 ± 0.064 | – | –

Sequence | protein stability index [1] | protein stability index [2] | protein stability index [3] | protein stability index [4]
YNENVYTEDGKLDIWSKSNYQVFQ [MED27] | 2.5 ± 0.42 | 2.97 ± 0.4 | – | –
WYTKSFGHLCAAEVVKIRDSFSNQ [DLC1] | 2.56 ± 0.78 | 2.09 ± 0.49 | – | –
QATLPVGSPSRPLSRRQLCPLTPG [C2CD2L] | 3.61 ± 0.33 | 3.74 ± 0.14 | – | –
ETKLHLLRQEMVNLRATDVRLMRQ [LURAP1L] | 2.96 ± 0.34 | 3.17 ± 0.16 | – | –
DEEHMEEAITSASFLEQIMAPLQP [FAM189A2] | 4.74 ± 0.18 | 4.96 ± 0.19 | – | –
QTQVKIWFQNKRSKFKKLMKQGGA [DLX1] | 2.36 ± 0.32 | 2.1 ± 0.42 | – | –
RRSISSSRSENVLSRLSLMAMPNG [PSD2] | 3.54 ± 0.17 | 3.56 ± 0.19 | – | –
FQAKKIPIVSSLADPLDTPPDSKE [PDZK1] | 4.16 ± 0.3 | 4.39 ± 0.63 | – | –
VTLALLGSYTVQSELGDYDPDECG [EPB41L3] | 2.46 ± 0.4 | 2.62 ± 0.27 | – | –
RAPRSPGQVTPRGLRLRLPRRESL [C6orf223] | 4.19 ± 0.35 | 4.41 ± 0.25 | – | –
LCATHFGEPLEKVASVGNSRPTGQ [KISS1] | 3.95 ± 0.4 | 4.01 ± 0.23 | – | –
TDILPQMITLSEAYIQIWKRRDND [USP39] | 2.82 ± 0.25 | 2.79 ± 0.14 | – | –
DGAGKTPTLGGGFHVNLGKESRAQ [BRF1] | 4.63 ± 0.14 | 4.77 ± 0.34 | – | –
VTGPDNGVRESETEQGFGEDLEDL [NFE2L1] | 5.79 ± 0.27 | 5.62 ± 0.35 | – | –
SCKADVVELLLSHADCDRRSRIEA [FEM1B] | 2.42 ± 0.17 | 2.65 ± 0.29 | – | –
TYNTKVYKMFASRRKQRYWPFSMD [LOXL2] | 2.32 ± 0.51 | 1.89 ± 0.15 | – | –
VEATVKPELTAALRDIRAQYESIA [PRPH] | 3.48 ± 0.16 | 3.4 ± 0.22 | – | –
IVAVLCYINLLNYMDRFTVAGVLP [SPNS1] | 3.23 ± 0.3 | 3.45 ± 0.14 | – | –
GNQLISNNIKFKKSSILTRAGEQR [CLCN6] | 3.78 ± 0.13 | 4.06 ± 0.44 | – | –
PQTHSNRIYRMIKLGLGIDEDEVA [HSP90AB1] | 3.25 ± 0.4 | 3.49 ± 0.31 | – | –
